assay: soluble on expression in E. coli; label from the status in PepcDB or PDB records

**Q.** For “MKQTPPLISFITICYNGLDDTCMLIESLRDTISSVSYEIIVVDNASRQDEASLIQERYPFVRTLRSEKNLGFSGGNNLGIQIAQGKYLFLINNDTYLTEDGLPALIERLESDPRIGAVSPKIRFAFPPQSIQFAGYTKLSRYTMRNKALGMGCPDDGTFDTPRPSAYLHGAALMLKREVIWKAGLMPEIYFLYYEELDWCTSMTRAGYQLWYEPRCTIFHKESQSTGRQSPLRTFYMMRNRMLYAWRNLPGMERCLAIAYQMLIVAPKDSLCFVLKGEPKLAKAVWHGVKGFWKLC”, which “soluble on expression in E. coli” value is on record?
**A.** not soluble

**Q.** Which “soluble on expression in E. coli” value does the source give for “MGSDKIHHHHHHMKVCVGIIGLGRIGHRFGISPQGDPLSHSEGYAQIPNVTVVLGVDPDPEACKNFLQRFSQAQVYSSLKDVPDGLHLEVVSVCSPTHLHAQGVIAALAWRPRVILCEKPLAVNVAEAEIMLAACSAQGCILITNYSRRWTPMLQALKNLTNQDDGLGTPIGACLRYNGGLLHNGTHWIDMLLALFGSVSCTYRLEKLSVAQDDAAESIALSWNSGLTAYLIAVRGTGCSIGEGELWGTGGMLRYSAGGGQVTWQTAQPSQWSGFQELDQAKIICEAGLKGHILGAVTEAVQLAKIGGQPTCSGADGVLALQVVEMARNNKFLIK” here?
**A.** not soluble

**Q.** With “MFVVAVANTKGGCGKTTLATHLAASFACRGYATGLADLDRQKSALGWLKRRPEGAAPIQGINLAREEDIPEGIERLVVDAAAAMDKDVVKDIVRRADLVVVPVLPGVFDEDGTARFVGHLESLKSIRKNRRDVAFVANRVRLNTRALTRLGGFLEELSFPVIARLRDTQHYTAAAAEGLSLFDLPGGRAADYRAEWTPLLDFIEIRVRG” as the sequence, how does the “soluble on expression in E. coli” value read?
**A.** soluble

**Q.** For “MTTSDSRSFMYRLLKFISRQPIQLSRLFARMLAGLVNTLKLTKTSRTIQLNLKITLPYLNDQQRERIIQNAIRNELTSYMEFFSIWGSSNQKNISRIHHVEGADFFHQAIAENKGIVLIVPHFGTWEIMNAWCAQYTDMTILYKPVKDKDADRFVREARSREQAKLVPTDESGVRQIFKALKQGGTTVILPDHTPNVGGEMVDYFGIPLASSNLSAKLIQKTKAKALFLYAIRNENHGFDMFIEPMDPAIYQGTDHDGTLVIHHAIEDLIRKYPDHYHWSYKRFKA”, which “soluble on expression in E. coli” value is on record?
**A.** not soluble

**Q.** With “MANYYEVLGVQASASPEDIKKAYRKLALRWHPDKNPDNKEEAEKKFKLVSEAYEVLSDSKKRSLYDRAGCDSWRAGGGA” as the sequence, how does the “soluble on expression in E. coli” value read?
**A.** soluble

**Q.** For “SASLIQRIARQACLTFRGSSTGSEGPAPGFPENLSLLKSLLTQVRAEDLNIAPRKALPQPLPRNLPPVTYMHIYETEGFSLGVFLLKSGTCIPLHDHPGMHGMLKVLYGTVRISCMDKLDTGAGHRRPPPEQQFEPPLQPLEREAVRPGVLRSRAEYTEASGPCVLTPHRDNLHQIDAVDGPAAFLDILAPPYDPEDGRDCHYYRVVEPIRPKEASGSACDLPREVWLLETPQADDFWCEGEPYPGPKVLP”, which “soluble on expression in E. coli” value is on record?
**A.** soluble

**Q.** Which “soluble on expression in E. coli” value does the source give for “MGSDKIHHHHHHMLGFRALAKPGAISMWVPQYSHQTQPVYLMIADALEQDIESGRLAEGDRLPTLKDLAEALNVTPGTVGRAYDEAAKRGLVAGEVGRGTFVRQLRQPLPAPSVPTPVAGESSQIDLSIIKPNDAHMSEWLGTAISELAASSDLGQVLDYVTEGGHTSHKQAGATWIQRWLPDARWQQVVLTAGAQHGLLVAISSLSKSDDVVLCESLCYPGIISLAHSLGRRLRGVAMDEHGLIPEALRAACLEHRPSLLVCVTTHQNPTNSIMPPARRQAIAEIAREFDLFIVDDDIYGFLEPSPDYKPLAAYAPERSVYLTSLSKSVLPALRIGYLYAPPQTLSRLSSMVRSSVWMPSPLMAQLASNLINSGKADQLVRMQQQEAAARQHMAREILGQYKIRSQPHSFHIWLELPEPWTSDEFANLARDNGVTVVSGSQFLPERSHATSGVRIALMAPSRQELGFALTKLASLLDSPEPRLFY” here?
**A.** not soluble

**Q.** For “MPLFKRRDGSGPAPNATIREKYDFRDVLGTGAFSKVFLAESKSDAGQMYAVKCIDKKALKGKEESLENEIKVLRKLRHNNIVQLFDTYDEKQFVYLVMELVTGGELFDRIVAKGSYTEQDASNLIRQVLEAVGFMHDNGVVHRDLKPENLLYYNQDEDSKIMISDFGLSKTEDSGVMATACGTPGYVAPEVLQQKPYGKAVDVWSIGVIAYILLCGYPPFYDESDANLFAQIIKGEYEFDAPYWDQISDSAKDFITHLMCCDPEARFTCQDALSHPWISGNTAYTHDIHGTVAVHLKKSLAKRNWKKAYNAAAAIRQLQMLRLSSNSNRLQKQASQQQPEPPTPAFHA”, which “soluble on expression in E. coli” value is on record?
**A.** soluble

**Q.** For “MSRPPPPRAASGAPLRPATVLGTMEMGRRMDASASAASVRAFLERGHSELDTAFMYCDGQSENILGGLGLGLGSGDCTVKIATKANPWEGKSLKPDSIRSQLETSLKRLQCPRVDLFYLHAPDHSTPVEETLCACHQLHQEGKFVELGLSNYASWEVAEICTLCKSNGWILPTVYQGMYNATTRQVEAELLPCLRHFGLRFYAYNPLAGGLLTGKYKYEDKDGKQPVGRFFGNNWAETYRNRFWKEHHFEAIALVEKALQTTYGTNAPRMTSAALRWMYHHSQLQGTRGDAVILGMSSLEQLEQNLAATEEGPLEPAVVEAFDQAWNMVAHECPNYFR”, which “soluble on expression in E. coli” value is on record?
**A.** soluble

**Q.** Which “soluble on expression in E. coli” value does the source give for “MKLVGSYTSPFVRKLSILLLEKGITFEFINELPYNADNGVAQFNPLGKVPVLVTEEGECWFDSPIIAEYIELMNVAPAMLPRDPLESLRVRKIEALADGIMDAGLVSVREQARPAAQQSEDELLRQREKINRSLDVLEGYLVDGTLKTDTVNLATIAIACAVGYLNFRRVAPGWCVDRPHLVKLVENLFSRESFARTEPPKA” here?
**A.** soluble

**Q.** For “MGSDKIHHHHHHMGYKNILIDFDDTIVDFYDAEEWAFHYMANVFNHKATKDDFLTFKKINHQHWEAFQQNKLTKSEVLSERFVNYFKHHQMEVDGHRADVLFRNGLAEAKVKYFDQTLETIVELSKRHDLYIVTNGVTETQKRRLNQTPLHKYIKKIFISEETGYQKPNPEFFNYVFNDIGEDERQHSIIVGDSLTSDILGGINAGIATCWFNFRGFDHNPGIIPDYEINSWKQLNDIVR”, which “soluble on expression in E. coli” value is on record?
**A.** not soluble

**Q.** For “MGSDKIHHHHHHMERRTILVTGASGFVGGALCRQLATLGSFAIRAASRDLGGASVAGIQAVTVADLSATTDWARALSGVDLVVHAAARVHVMKETASDSLAEFRRVNVDGTLNLARQAAAAGVRRFIFISSIKVNGESSQPGQPLRADDSPAPQDAYGVSKHEAEQGLRQLAAATGMEVVVIRPVLVYGPGVKANFHSMMRWLQRGVPLPFGAVCNRRSLVSLANLVDLVVTCIDHPRAANQTFLASDGDDVSLTQLLRALGLALGRPARLLPVPAGLLRGAVLLIGRRDLAQRLFGTLQVDIEKNRQLLGWYPPCTLEQGLNMTARSFLGARRP”, which “soluble on expression in E. coli” value is on record?
**A.** not soluble

**Q.** For “STWTPRNRSEDEEEDENIDLEKNDDDEPNKPTDKGDSTDTEADHKLINPGEIPCDRFKDETHSKDLDPPLTDSELKEGEERTDLLAEQAKPTTSSPSVLQRGSDLITQEKPSEPGHAASTGNSNVTSVIHSPPSAPKPKLWSLAEIATSSDRCKGSSEASQAAGLSQSTVIASAASPTRSSPQCPLPNNTVLSRPIYYTSPFYPGYTNYSTFGHLHSSHGTNTSSTAHFNGLSQTVLNRAEALVRESKVRSQTQVDLCKDSPYELKKGMSNI”, which “soluble on expression in E. coli” value is on record?
**A.** not soluble

**Q.** With “LRTITRDDWETCIDLKVARHQAHFVASNLYSLAQSRFLPGFRAVGIHHGGRMVGFALYGPDADDGHYWLYRLMIDRRYQGKGHGRAALQRIIASVRRTRRRSDRLMVAYAVDNDVARQLYRDAGFVEQGLAPWGETMACLMLPEPSHRSGKVAGAPGGRAAHGVPA” as the sequence, how does the “soluble on expression in E. coli” value read?
**A.** not soluble

**Q.** For “MGSDKIHHHHHHMEMESPVRILFVIDQFSSPYAGTEGQLLQLISNLPADRFDPELLVLRSSDYVNEGNIPCKVHVLGSSKLFSMKTWLALFQFARRQKQAGTALCHVFFNDSSVLCPPVFGLVGIPTLISRRDMGYWYTRKYLWVLRRTAGFVRGVVANSEAVKRITVQKEGFSDADVSVIYNGYPEGDEELHPLIGEERQRYVETLGLPKSGRFVVLVANLRDIKRIGDAISAMARLTQTLPDTHLVLIGAGDQKPYRMLAEAVGNAGQVHFLGARSDVNNILRVMDVGLLCSESEGYSNAIVEYMQAKLPVVASDVGGNSEAVEHGVTGFLFPMGDVDQMAEQLATVLKGESRAVASMGEAGYKRAGHRHALHTMIEAHCGLYDRLLSGSDYSRSGLGVR”, which “soluble on expression in E. coli” value is on record?
**A.** not soluble

**Q.** With “SMAENGDNEKMAALEAKICHQIEYYFGDFNLPRDKFLKEQIKLDEGWVPLEIMIKFNRLNRLTTDFNVIVEALSKSKAELMEISEDKTKIRRSPSKPLPEVTDEYKNDVKNRSVYIKGFPTDATLDDIKEWLEDKGQVLNIQMRRTLHKAFKGSIFVVFDSIESAKKFVETPGQKYKETDLLILFKDDYFAKKNE” as the sequence, how does the “soluble on expression in E. coli” value read?
**A.** soluble

**Q.** Which “soluble on expression in E. coli” value does the source give for “MGSDKIHHHHHHMLNKVLTHLDENIEKSLERLFSLLRFQSISTDFAYKDECRKAADWLVEDLKSIGFKASRRDTSGHPMVVGHHPGPSDDCLHVLFYGHYDVQPVDPLNLWEDDPFTPSLKEREGEKVICARGASDDKGQLMTFIEACRAFKKETGQLPVRVTVLFEGEEESGSSSLVPFLKANKDELKADCALVCDTSMWDADTPSVSVALRGILGEEIIITAANRDLHSGYFGGAAANPIRILTKVLAGLHDENNRVTLPGFYDGVEETPPHILQSWNALNCTAENFLGPIGLSLPAGEKGRSVLELVWARPTAEINGISGGYEGEGIKTVIASQASAKVSFRLVHKQDPEKIRQAFRDYVCSLIPADCSVVFKEHGASPAIQLPYDSPFIKTAKDALSQEWNNPALLTVMGGSIPIVADFQSILDMETLLVGFALADDRIHSPNEKYNLKSFHKGQRSWARILATLAKTGG” here?
**A.** not soluble

**Q.** With “MPNTPHTMNLYIKNIAQLVTCQGSEAKHGREAMGQIHTIEGPAAVVIRDGIIAFAGRMADVAPSMTEGCRELDATGRCVLPGFVDSHTHLVFGGYREDEFQWRLAGDSYMSIMERGGGIASTMRATRSESEDELKASARRHLSNMMKMGVTTVEAKSGYGMNLETELKQLRVVRDLQDEQPLDLYSTFMGAHDTAPEYKGRPTEFIEYLCREVLPEVVRQNLAECCDIFTEKGVFDHEQTRRMLTAAKEAGLSVKMHADEIVPFGGAELAAELGCLSADHLLRISDAGIKALAESNTVATLLPCTAFSLRADYAPARKMIDAGCAVALGSDLNPGSCFSASVPLMFALATLYMGMTVEEAITALTINGAAAIGRADTIGSIEPGKKGDLVVLQYPSYKFLSYHFGMNLVEHTVKGGRVVYTNS” as the sequence, how does the “soluble on expression in E. coli” value read?
**A.** not soluble

**Q.** For “GPGSMPKEPILHAELREWLEEYRRHRAFNPIAWIEEKCTKLNEYMRNNKLRGCVTNVSGGVDSAVVLSLCSRAQRMEGSPIVRNVGICQPICSSAWALERGRENIRAAGAEEVVVDQTDIHRQLSLSVEAAVGIDGKDFARGQLRSYMRAPVGYYVAQLCSQSGTPTIVMGTGNMDEDGYLGYFCKAGDGVVDVQLISDLHKSEVFKVARELGVPENTLQAAPSADLWDGQTDEEELGFPYDFVELYTGYFLKLNNGEREMKKKSLSAEARHQFEAYMKSCEETHCRNAHKLNGIVNL”, which “soluble on expression in E. coli” value is on record?
**A.** soluble

**Q.** Which “soluble on expression in E. coli” value does the source give for “NRANPDPNCCLGVFGLSLYTTERDLREVFSKYGPIADVSIVYDQQSRRSRGFAFVYFENVDDAKEAKERANGMELDGRRIRV” here?
**A.** soluble

**Q.** For “MGKYDALVELLLEAVKEGANIHQEDCSIPVGISNRHIHLSQADVNTLFGEGYSLTRIKDLSQPGQYACKETLTICGPKGAIENVRILGPERRESQVEILRTDCFKLGLKAPVKLSGELQGTPGMTLVGPKGSVLLSQGVIVAQRHIHMSLEDAQRFGVRDGELVTIQINGLRGGTYANVAIRANNTSQLECHIDTDEANGMDLTPTSRITIIK”, which “soluble on expression in E. coli” value is on record?
**A.** not soluble

Reference: the DeepSol protein solubility set
